According to publication PMC3633458:

Legend:
[1] = target: Escherichia coli-expressed Plasmodium falciparum merozoite surface protein 3 (EcMSP3) (Plasmodium falciparum (FVO strain)); assay: AUC
[2] = target: Escherichia coli-expressed Plasmodium falciparum merozoite surface protein 3 (EcMSP3) (Plasmodium falciparum (FVO strain)); assay: SEC-MALS

“Escherichia coli-expressed Plasmodium falciparum merozoite surface protein 3 (EcMSP3) (domain or fragment)” gave a stoichiometry N [1] of 2 and a stoichiometry N [2] of 2.
